Assay: soluble on expression in E. coli; label from the status in PepcDB or PDB records

Sequence | soluble on expression in E. coli
MKILTIDTSTSTCSAALSIDGRCAGEYLLEAERHPSERLLAAVDILLRDTGMELEELDGFGVALGPGSFTGVRIGVATVKGLALATGKPAVGFSSLAMLALNLPWSLLPVCTLFDARKKEVYGGLYRVTSAPEPVIVDRVAPPERFLEAIEGEAIFVGDGAIRYREAIESILGHRAFFAPAHCHQPRASAGALLAGELLRTGAAVPLPLLNPTYIRPSEAELARMCQKAVAAALEHHHHHH | not soluble
MELNAVKSSYARWAPIYDKTFGAITNVGRHAAVDYINAHDATELLEVGVGTGLSLPNYRPGLKVTGIDFSEEMLAKARAKVESLGLGHVQSLRQMDARDLDFADASFDVVAAMHIISVVPEPERVMAEMARVCKPGGLIVITNHFARDSGMLARVERFAAPFANLLGWHPDFEISSVLKQPLEHHHHHH | not soluble
MLERTQVFVDTSYLLASFYNSWEIGARAQLEIDLPEVVATLGNMIHNQLGQPVHRQFWYDGIPESGPHRYQRALRTCDGVQLRAGQLIEWGERRTQKAVDTRLVADMVLAGVRREFTDIVLVSGDADMIPGVQEAVNAGVRVHLYGFGWDSMSSALRHACDSTTILDPREDFSDCMQLEILEGPLPPVVRNPDEEGEEGEFPAAAAEATAAAAEAAADTTVTTDATDNEATPPVPTPEQVAEKSQREAPAAPIPCPQRPGEPALSEEDCMAEVPAKMPKPVAPKPGAHLPAETPAPAPTATPAPTPSSRTVRVTSTVEESLEVTVSNSAEPNVEAEEADTPATPRPAPNPSMMAPRRKLRSRYVPLPNEVWASAGYQTPFDVGQQYALWWFDNAATPEQRDSAHLLSGGGLPPEIDRPLLQFACETLHEYTLTEAQRVGLRDGFHSGIRGVLINNQNS | not soluble
MRGLSRRVQAMKPDAVVAVNAKALELRRQGVDLVALTAGEPDFDTPEHVKEAARRALAQGKTKYAPPAGIPELREALAEKFRRENGLSVTPEETIVTVGGSQALFNLFQAILDPGDEVIVLSPYWVSYPEMVRFAGGVVVEVETLPEEGFVPDPERVRRAITPRTKALVVNSPNNPTGAVYPKEVLEALARLAVEHDFYLVSDEIYEHLLYEGEHFSPGRVAPEHTLTVNGAAKAFAMTGWRIGYACGPKEVIKAMASVSRQSTTSPDTIAQWATLEALTNQEASRAFVEMAREAYRRRRDLLLEGLTALGLKAVRPSGAFYVLMDTSPIAPDEVRAAERLLEAGVAVVPGTDFAAFGHVRLSYATSEENLRKALERFARVLGRA | soluble
MIRLAPLITADVDTTTLPGGKASDAAQDFLTLLSEALAGETTTDKAAPQLLVATDKPTTKGEPLVSDILADAQQADLLIPVDETLPVINDEQSTSTPLTTAQTMTLAAVADKNTTKDEKADDLNEDVTASLSALFAMLPGFDNTPKVTDAPSTVLPAEKPTLFTKLTSAQLTTAQPDDAPGTPAQPLTPLVAEAQSKAEVISTPSPVTADASPLITPHQTQPLPTVAAPVLSAPLGSHEWQQSLSQHISLFTRQGQQSAELRLHPQDLGEVQISLKVDDNQAQIQMISPHQHVRAALEAALPVLRTQLAESGIQLGQSNISGESFSGQQQAASQQQQSQRTANHEPLAGEDDDTLPVPVSLQGRVTGNSGVDIFA | not soluble
MNARSTRFTQDEVLDLIIVGGGINGAGIAADATGRGLKVGLYDAKDFASATSSASSKLVHGGLRYLEHYEFRLVSEALAEREVLLKKAPHIVTPMRFRLPHRPFLRPAWMIRAGLFLYDNLGKRTSLPASHKVNLKAGSVTKPEMQIGFEYSDCWVDDARLVILNAMQAQEQGAEVLNYCTVEKAERMGDLWHVTLLDEQTQQRFERRSHALVNAAGPWVKQFLNENAHVSSPYGIRLIQGSHIIVPRIHDEPQAYILQNEDKRIVFVIPYLDDYSMIGTTDVEYKGDPRKVAITDAERDYLISIVNKHFMREIARSDIIAEFSGVRPLCDDESNSPQAITRDYTLSLDQQADEAPLLSIFGGKLTTYRKLGEAAMKHLAPFFPKMKAPWTADAPLPGGENFDYAALKNQLVAAFPFITESVIERWLRSYGSRTTQLLAGVTGIEDLGIAFSGELYQREIDYLCEKEFARHAQDIFWRRSKLGLNHDTSVVEEVESYLQQKFHAEQPLKATVLEHHHHHH | soluble
MSANDRRDRRVRVAVVFGGRSNEHAISCVSAGSILRNLDSRRFDVIAVGITPAGSWVLTDANPDALTITNRELPQVKSGSGTELALPADPRRGGQLVSLPPGAGEVLESVDVVFPVLHGPYGEDGTIQGLLELAGVPYVGAGVLASAVGMDKEFTKKLLAADGLPVGAYAVLRPPRSTLHRQECERLGLPVFVKPARGGSSIGVSRVSSWDQLPAAVARARRHDPKVIVEAAISGRELECGVLEMPDGTLEASTLGEIRVAGVRGREDSFYDFATKYLDDAAELDVPAKVDDQVAEAIRQLAIRAFAAIDCRGLARVDFFLTDDGPVINEINTMPGFTTISMYPRMWAASGVDYPTLLATMIETTLARGVGLH | soluble
MVVSIGVFDGVHIGHQKVLRTMKEIAFFRKDDSLIYTISYPPEYFLPDFPGLLMTVESRVEMLSRYARTVVLDFFRIKDLTPEGFVERYLSGVSAVVVGRDFRFGKNASGNASFLRKKGVEVYEIEDVVVQGKRVSSSLIRNLVQEGRVEEIPAYLGRYFEIEGIVHKDREFGRKLGFPTANIDRGNEKLVDLKRGVYLVRVHLPDGKKKFGVMNVGFRPTVGDARNVKYEVYILDFEGDLYGQRLKLEVLKFMRDEKKFDSIEELKAAIDQDVKSARNMIDDIINSKFEKEG | soluble
MGSPAHRPALLLLLPPLLLLLLLRVPPSRSFPGSGDSPLEDDEVGYSHPRYKDTPWCSPIKVKYGDVYCRAPQGGYYKTALGTRCDIRCQKGYELHGSSLLICQSNKRWSDKVICKQKRCPTLAMPANGGFKCVDGAYFNSRCEYYCSPGYTLKGERTVTCMDNKAWSGRPASCVDMEPPRIKCPSVKERIAEPNKLTVRVSWETPEGRDTADGILTDVILKGLPPGSNFPEGDHKIQYTVYDRAENKGTCKFRVKVRVKRCGKLNAPENGYMKCSSDGDNYGATCEFSCIGGYELQGSPARVCQSNLAWSGTEPTCAAMNVNVGVRTAAALLDQFYEKRRLLIVSTPTARNLLYRLQLGMLQQAQCGLDLRHITVVELVGVFPTLIGRIGAKIMPPALALQLRLLLRIPLYSFSMVLVDKHGMDKERYVSLVMPVALFNLIDTFPLRKEEMVLQAEMSQTCNT | soluble
MHSQQRPNPQMNRHPYGTPGSAPQMRRPGGFAGQPPQMHGPRMVAPPAAPLPKKKKYADKCIHPKIRELEPDAENYMALLASEQKLDSTLSRKKLDIQEALKRPSKVKKRLRIYISHTFIEEKQPEKDTDEASLPMWELRVEGRLLDEQPPAPAIPGQRPVPKRKFSSFFKSLVIELDKEMYGPDQHLVEWHRTPQTNETDGFQVKRAGDRPVKCRILLLLDNHPAKFKLHPRLAKVLGIATETRPKIIEALWQYIKTHGLQDPQERDIINCDTFLSQCFGVNRMRFMEVPNKLHQLLQQTDPLEFNHIIQRPKEGQEQVSTCYDIDVEMEDPVKQFMHTFVHSPGLANDIQTLDQKCYDIIEQINELKTRRDFYARFYTEPAEFIKSWVMSQNSDLKTMNELSGDLEAERFAESYVRPETEEGVQRYMFQKVNQKRHELEQSLGVRSN | not soluble
MQITLARIDDRLIHGQVTTVWSKVANAQRIIICNDDVFNDEVRRTLLRQAAPPGMKVNVVSLEKAVAVYHNPQYQDETVFYLFTNPHDVLTMVRQGVQIATLNIGGMAWRPGKKQLTKAVSLDPQDIQAFRELDKLGVKLDLRVVASDPSVNILDKINETAFCE | soluble
MSYMLPHLHNGWQVDQAILSEEDRVVVIRFGHDWDPTCMKMDEVLYSIAEKVKNFAVIYLVDITEVPDFNKMYELYDPCTVMFFFRNKHIMIDLGTGNNNKINWAMEDKQEMVDIIETVYRGARKGRGLVVSPKDYSTKYRY | soluble
